In the supplement of paper PMC10724198:
± gives the standard deviation of the averaged measurements.

Tests used:
Saccharomyces cerevisiae [1] = assay: protein stability index of tFT-peptide fusion (C-terminal peptide) (PSI (0-1 scale)); higher = more stable (slower turnover)
Description: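 MPS profiling in S. cerevisiae of the tFT-X12 degron library: putative degron peptides plus stable controls, 12 aa, fused to the C-terminus of a sfGFP-mCherry timer. Cells are FACS-sorted into 8 mCherry/sfGFP bins and deep-sequenced. PSI runs from 0 (unstable) to 1 (stable). Backgrounds are wild type, das1Δ and doa10Δ at 30 °C, and wild type, das1Δ, cdc34-1 and cdc53-1 at 37 °C; 2-3 technical replicates each.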

Saccharomyces cerevisiae [2] = assay: as above; conditions: genetic background: wild type; temperature: 30 C
[3] = genetic background: cdc34-1, temperature: 37 C
[4] = genetic background: cdc53-1, temperature: 37 C
[5] = genetic background: das1 deletion, temperature: 30 C
[6] = genetic background: das1 deletion, temperature: 37 C
[7] = genetic background: doa10 deletion, temperature: 30 C
[8] = genetic background: wild type, temperature: 30 C
[9] = genetic background: wild type, temperature: 37 C
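Also: PSI is a weighted mean of sequencing reads over stability bins, variants kept only with over 10 reads, mCherry proximal and sfGFP distal, peptide attached via GGGS linker.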

| Sequence | protein stability index (Saccharomyces cerevisiae [1]; [3]) | protein stability index (Saccharomyces cerevisiae [1]; [4]) | protein stability index (Saccharomyces cerevisiae [1]; [5]) | protein stability index (Saccharomyces cerevisiae [1]; [6]) | protein stability index (Saccharomyces cerevisiae [1]; [7]) | protein stability index (Saccharomyces cerevisiae [1]; [8]) | protein stability index (Saccharomyces cerevisiae [1]; [9]) | protein stability index (Saccharomyces cerevisiae [2]) |
| --- | --- | --- | --- | --- | --- | --- | --- | --- |
| ILDRRPRTFALV | 0.572 ± 0.017 | 0.644 ± 0.018 | 0.633 ± 0.02 | 0.692 ± 0.013 | 0.0946 ± 0.015 | 0.113 ± 0.011 | 0.149 ± 0.008 | 0.186 ± 0.0083 |
| IMGGLRHRIEVY | 0.366 ± 0.038 | 0.403 ± 0.048 | 0.273 ± 0.028 | 0.477 ± 0.012 | 0.23 ± 0.0031 | 0.268 ± 0.034 | 0.437 ± 0.0067 | 0.352 ± 0.016 |
| IRSLRPFLLPLF | 0.645 ± 0.016 | 0.731 ± 0.018 | 0.643 ± 0.022 | 0.7184 ± 0.0066 | 0.283 ± 0.004 | 0.306 ± 0.03 | 0.543 ± 0.0084 | 0.4088 ± 0.004 |
| IRVFSFLLFGCF | 0.465 ± 0.027 | 0.503 ± 0.007 | 0.373 ± 0.033 | 0.546 ± 0.03 | 0.358 ± 0.012 | 0.364 ± 0.027 | 0.488 ± 0.02 | 0.44 ± 0.056 |
| ISFQFFVCLCAR | 0.13 ± 0.0054 | 0.181 ± 0.0063 | 0.159 ± 0.022 | 0.289 ± 0.0036 | 0.145 ± 0.005 | 0.161 ± 0.018 | 0.253 ± 0.0092 | 0.234 ± 0.019 |
| ISHLQCFFVVML | 0.439 ± 0.029 | 0.507 ± 0.025 | 0.355 ± 0.026 | 0.563 ± 0.016 | 0.3759 ± 0.0013 | 0.346 ± 0.034 | 0.485 ± 0.0089 | 0.489 ± 0.042 |
| ISLSSLYVVMYV | 0.413 ± 0.0072 | 0.418 ± 0.041 | 0.227 ± 0.026 | 0.428 ± 0.011 | 0.178 ± 0.0094 | 0.195 ± 0.027 | 0.3919 ± 0.0016 | 0.291 ± 0.024 |
| IVFFVLFRFWRF | 0.354 ± 0.019 | 0.3827 ± 0.0031 | 0.326 ± 0.038 | 0.46 ± 0.025 | 0.318 ± 0.02 | 0.294 ± 0.017 | 0.442 ± 0.013 | 0.32 ± 0.047 |
| IVRLGRWLGLSC | 0.657 ± 0.032 | 0.691 ± 0.025 | 0.613 ± 0.055 | 0.709 ± 0.013 | 0.215 ± 0.031 | 0.261 ± 0.028 | 0.494 ± 0.028 | 0.352 ± 0.052 |
| IYEAFLVFCLCG | 0.426 ± 0.016 | 0.454 ± 0.011 | 0.326 ± 0.028 | 0.543 ± 0.014 | 0.284 ± 0.016 | 0.287 ± 0.015 | 0.4385 ± 0.0019 | 0.365 ± 0.021 |
| KKKEIIKIIKIN | 0.311 ± 0.033 | 0.643 ± 0.044 | 0.697 ± 0.065 | 0.72 ± 0.048 | 0.0624 ± 0.022 | 0.0729 ± 0.034 | 0.0954 ± 0.039 | 0.127 ± 0.013 |
| KKKKKKKIKIMS | 0.583 ± 0.0096 | 0.706 ± 0.019 | 0.636 ± 0.024 | 0.689 ± 0.018 | 0.176 ± 0.03 | 0.232 ± 0.051 | 0.293 ± 0.032 | 0.266 ± 0.048 |
| KKKNIYKVMKLE | 0.65 ± 0.011 | 0.706 ± 0.011 | 0.646 ± 0.035 | 0.72636 ± 0.00051 | 0.146 ± 0.043 | 0.19 ± 0.041 | 0.307 ± 0.025 | 0.403 ± 0.055 |
| KLCVGLVLSFVC | 0.47 ± 0.021 | 0.503 ± 0.043 | 0.341 ± 0.028 | 0.5351 ± 0.0032 | 0.176 ± 0.0034 | 0.206 ± 0.023 | 0.3964 ± 0.0008 | 0.257 ± 0.053 |
| KWGRFQQVMVIN | 0.558 ± 0.037 | 0.664 ± 0.014 | 0.5 ± 0.029 | 0.641 ± 0.0096 | 0.136 ± 0.0045 | 0.156 ± 0.022 | 0.34 ± 0.025 | 0.266 ± 0.0042 |
| KYQVIILQTRKI | 0.578 ± 0.014 | 0.754 ± 0.0091 | 0.634 ± 0.063 | 0.765 ± 0.032 | 0.201 ± 0.064 | 0.252 ± 0.053 | 0.491 ± 0.02 | 0.398 ± 0.0041 |
| LACGIDGYYWRH | 0.703 ± 0.048 | 0.7448 ± 0.0019 | 0.667 ± 0.015 | 0.73851 ± 0.00042 | 0.6631 ± 0.0021 | 0.682 ± 0.028 | 0.709 ± 0.017 | 0.792 ± 0.027 |
| LAFMYFVCPRLA | 0.598 ± 0.045 | 0.645 ± 0.0077 | 0.56 ± 0.02 | 0.6511 ± 0.0057 | 0.245 ± 0.0083 | 0.269 ± 0.031 | 0.464 ± 0.022 | 0.369 ± 0.0057 |
| LAVVLVWVPGRW | 0.443 ± 0.037 | 0.526 ± 0.057 | 0.335 ± 0.032 | 0.563 ± 0.019 | 0.311 ± 0.0059 | 0.347 ± 0.023 | 0.561 ± 0.05 | 0.418 ± 0.026 |
| LCFFLAFSFVFF | 0.253 ± 0.017 | 0.324 ± 0.011 | 0.231 ± 0.025 | 0.382 ± 0.026 | 0.289 ± 0.00096 | 0.236 ± 0.022 | 0.3374 ± 0.0016 | 0.296 ± 0.0099 |
| LCFGMVELMWIY | 0.418 ± 0.057 | 0.52 ± 0.071 | 0.388 ± 0.046 | 0.521 ± 0.011 | 0.371 ± 0.047 | 0.377 ± 0.037 | 0.471 ± 0.018 | 0.458 ± 0.0053 |
| LCFRLVSYLCIN | 0.497 ± 0.054 | 0.694 ± 0.013 | 0.591 ± 0.048 | 0.6781 ± 0.0015 | 0.223 ± 0.0073 | 0.221 ± 0.011 | 0.37 ± 0.013 | 0.39 ± 0.0077 |
| LCGIFTFRLSLL | 0.693 ± 0.06 | 0.7815 ± 0.0027 | 0.668 ± 0.028 | 0.706 ± 0.014 | 0.245 ± 0.026 | 0.273 ± 0.024 | 0.437 ± 0.005 | 0.388 ± 0.051 |
| LCIYNFGWWFCV | 0.494 ± 0.011 | 0.637 ± 0.044 | 0.561 ± 0.036 | 0.6389 ± 0.0054 | 0.121 ± 0.015 | 0.134 ± 0.0087 | 0.128 ± 0.014 | 0.183 ± 0.056 |
| LCLLCWIPCSFR | 0.629 ± 0.017 | 0.62751 ± 0.00045 | 0.451 ± 0.029 | 0.649 ± 0.0077 | 0.486 ± 0.035 | 0.4661 ± 0.0017 | 0.616 ± 0.0074 | 0.524 ± 0.048 |
| LCLLFLSFFFVC | 0.464 ± 0.0083 | 0.515 ± 0.014 | 0.374 ± 0.037 | 0.555 ± 0.086 | 0.229 ± 0.015 | 0.234 ± 0.027 | 0.361 ± 0.0065 | 0.307 ± 0.0056 |
| LCVVVICCLMAR | 0.097 ± 0.025 | 0.198 ± 0.055 | 0.123 ± 0.036 | 0.265 ± 0.0071 | 0.0806 ± 0.015 | 0.125 ± 0.026 | 0.216 ± 0.012 | 0.279 ± 0.05 |
| LDLSSVFILYFN | 0.599 ± 0.041 | 0.6735 ± 0.0021 | 0.518 ± 0.0058 | 0.709 ± 0.048 | 0.2653 ± 0.0025 | 0.28 ± 0.028 | 0.54398 ± 0.00036 | 0.374 ± 0.022 |
| LEGRFLACRGIC | 0.619 ± 0.028 | 0.719 ± 0.048 | 0.598 ± 0.018 | 0.728 ± 0.02 | 0.144 ± 0.017 | 0.157 ± 0.011 | 0.325 ± 0.02 | 0.264 ± 0.04 |
| LEVHGSCIFICV | 0.5422 ± 0.0046 | 0.5462 ± 0.0037 | 0.359 ± 0.039 | 0.5674 ± 0.0018 | 0.336 ± 0.041 | 0.374 ± 0.0092 | 0.492 ± 0.026 | 0.444 ± 0.017 |
